Source: article PMC4189786

Molecular target: serum albumin (HSA in Results and figures; Methods state purchased bovine serum albumin, Sigma A7030) ((Methods: bovine)) (UniProt P02769)
Assay: tryptophan fluorescence quenching
Settings: 6 uM albumin, off-target, 6 uM albumin in phosphate buffer (10 mM) pH 7.4, 37 C, excitation 290 nm, emission 300-400 nm, 90 s after each aptamer addition

Sequence of serum albumin (HSA in Results and figures; Methods state purchased bovine serum albumin, Sigma A7030) ((Methods: bovine)) (P02769 25-607): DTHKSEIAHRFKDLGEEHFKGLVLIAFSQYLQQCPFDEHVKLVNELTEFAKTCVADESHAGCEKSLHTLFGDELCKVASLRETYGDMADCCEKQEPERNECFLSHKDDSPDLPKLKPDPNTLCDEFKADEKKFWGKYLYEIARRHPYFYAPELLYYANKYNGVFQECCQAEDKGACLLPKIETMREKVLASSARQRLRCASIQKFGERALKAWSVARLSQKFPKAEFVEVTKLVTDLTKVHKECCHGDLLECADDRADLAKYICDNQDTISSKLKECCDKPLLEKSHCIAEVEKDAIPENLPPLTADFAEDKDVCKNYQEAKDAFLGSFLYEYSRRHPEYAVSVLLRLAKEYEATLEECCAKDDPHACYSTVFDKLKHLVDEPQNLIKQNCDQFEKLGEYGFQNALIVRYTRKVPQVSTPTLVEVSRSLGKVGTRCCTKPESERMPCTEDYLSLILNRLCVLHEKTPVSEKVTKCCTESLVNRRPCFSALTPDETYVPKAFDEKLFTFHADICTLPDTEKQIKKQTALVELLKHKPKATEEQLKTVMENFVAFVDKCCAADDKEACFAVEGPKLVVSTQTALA

Sequence | binding signal (aptamer:HSA 1:10) [% quenching] | binding signal (aptamer:HSA 1:100) [% quenching]
ACTTTTGAATGTGGCAACAAATTCGACAGG [1.5 M Short] | 9 | 1.5
GGGAGACAAGAATAAACGCTCAAATGGACTTTTGAATGTGGCAACAAATTCGACAGGAGGCTCACAACAGGC [1.5 M Long] | 16 | 2.4
